Reference: publication PMC11969024 (2025)

B1: peptide HD2 (from tick evasin EVA4) / CCL8 (biotinylated, synthetic) (parent complex)
chain 1: EEDDYTAYAPLTCYFT
chain 2: QPDSVSIPITCCFNVINRKIPIQRLESYTRITNIQCPKEAVIFKTKRGKEVCADPKERWVRDSMKHLDQIFQNLKP

Variants of: B1

Row | Variant | enrichment
1 | chain 1 T16C | -2.39 log2 (difference from the parental peptide)
2 | chain 1 T16N | 0.543 log2 (difference from the parental peptide)
3 | chain 1 T16K | 1.41 log2 (difference from the parental peptide)
4 | chain 1 Y8W | 0.61 log2 (difference from the parental peptide)
5 | chain 1 Y8A | -1.36 log2 (difference from the parental peptide)
6 | chain 1 Y8D | -7.06 log2 (difference from the parental peptide)
7 | chain 1 F15W | 0.273 log2 (difference from the parental peptide)
8 | chain 1 F15Y | 1.8 log2 (difference from the parental peptide)
9 | chain 1 F15C | 0.0192 log2 (difference from the parental peptide)
10 | chain 1 F15V | 2.21 log2 (difference from the parental peptide)
11 | chain 1 F15N | 1.4 log2 (difference from the parental peptide)
12 | chain 1 F15P | 2.45 log2 (difference from the parental peptide)
13 | chain 1 E1C | -8.27 log2 (difference from the parental peptide)
14 | chain 1 E1Y | -0.879 log2 (difference from the parental peptide)
15 | chain 1 E1A | -0.674 log2 (difference from the parental peptide)
16 | chain 1 E1Q | -0.418 log2 (difference from the parental peptide)
17 | chain 1 E1R | -2.91 log2 (difference from the parental peptide)
18 | chain 1 E2P | -2.32 log2 (difference from the parental peptide)
19 | chain 1 E2T | -1.89 log2 (difference from the parental peptide)
20 | chain 1 E2A | -1.44 log2 (difference from the parental peptide)
21 | chain 1 E2S | -1.97 log2 (difference from the parental peptide)
22 | chain 1 P10C | -8.24 log2 (difference from the parental peptide)

Row | Variant | enrichment
23 | chain 1 P10D | -7.93 log2 (difference from the parental peptide)
24 | chain 1 P10L | -8.02 log2 (difference from the parental peptide)
25 | chain 1 P10R | -7.6 log2 (difference from the parental peptide)
26 | chain 1 C13S | -1.77 log2 (difference from the parental peptide)
27 | chain 1 C13R | -3.1 log2 (difference from the parental peptide)
28 | chain 1 C13H | -2.17 log2 (difference from the parental peptide)
29 | chain 1 C13T | -0.813 log2 (difference from the parental peptide)
30 | chain 1 C13N | -3.72 log2 (difference from the parental peptide)
31 | chain 1 C13K | -4.94 log2 (difference from the parental peptide)
32 | chain 1 C13W | -1.28 log2 (difference from the parental peptide)
33 | chain 1 A7E | 2.43 log2 (difference from the parental peptide)
34 | chain 1 A7K | 0.582 log2 (difference from the parental peptide)
35 | chain 1 A7I | 0.0548 log2 (difference from the parental peptide)
36 | chain 1 A7S | 0.947 log2 (difference from the parental peptide)
37 | chain 1 A7D | 2.55 log2 (difference from the parental peptide)
38 | chain 1 T6V | -3.12 log2 (difference from the parental peptide)
39 | chain 1 T6I | -5.53 log2 (difference from the parental peptide)
40 | chain 1 T6Q | 1.13 log2 (difference from the parental peptide)
41 | chain 1 T6C | -9.06 log2 (difference from the parental peptide)
42 | chain 1 T6N | 0.795 log2 (difference from the parental peptide)
43 | chain 1 D4S | -2.5 log2 (difference from the parental peptide)
44 | chain 1 D4N | -2.35 log2 (difference from the parental peptide)

Row | Variant | enrichment
45 | chain 1 D4G | -2.42 log2 (difference from the parental peptide)
46 | chain 1 D4E | -0.292 log2 (difference from the parental peptide)
47 | chain 1 D4A | -3.07 log2 (difference from the parental peptide)
48 | chain 1 D4V | -3.88 log2 (difference from the parental peptide)
49 | chain 1 D4C | -7.17 log2 (difference from the parental peptide)
50 | chain 1 D4P | -4.27 log2 (difference from the parental peptide)
51 | chain 1 D4R | -6.61 log2 (difference from the parental peptide)
52 | chain 1 D4K | -6.39 log2 (difference from the parental peptide)
53 | chain 1 A9W | -5.37 log2 (difference from the parental peptide)
54 | chain 1 A9N | -3.86 log2 (difference from the parental peptide)
55 | chain 1 A9R | -0.86 log2 (difference from the parental peptide)
56 | chain 1 T12A | -0.122 log2 (difference from the parental peptide)
57 | chain 1 T12D | -1.11 log2 (difference from the parental peptide)
58 | chain 1 T12P | -0.165 log2 (difference from the parental peptide)
59 | chain 1 T12H | -0.0146 log2 (difference from the parental peptide)
60 | chain 1 Y14R | -0.632 log2 (difference from the parental peptide)
61 | chain 1 Y14E | -0.645 log2 (difference from the parental peptide)
62 | chain 1 Y14T | 1.09 log2 (difference from the parental peptide)
63 | chain 1 Y14V | 1.05 log2 (difference from the parental peptide)
64 | chain 1 Y14K | -1.21 log2 (difference from the parental peptide)
65 | chain 1 Y5G | -5.04 log2 (difference from the parental peptide)
66 | chain 1 Y5M | -0.636 log2 (difference from the parental peptide)
